One test addresses GABARAP WT (human GABARAP 1-116) (human, UniProt O95166 1-116). The experiment in a line: ITC. Background: In ITC the heat of successive injections is recorded.
Chain of GABARAP WT (human GABARAP 1-116) (O95166 1-116): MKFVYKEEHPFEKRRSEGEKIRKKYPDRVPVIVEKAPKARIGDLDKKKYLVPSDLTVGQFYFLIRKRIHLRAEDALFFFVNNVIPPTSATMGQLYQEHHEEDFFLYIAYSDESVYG
As usually defined, the Kd is the constant that tells how readily two partners part at equilibrium. A lower Kd goes with tighter binding. In turn, DDFELLDQY [FAM134B453-460 (Δhelix) peptide] had a Kd of 2.54 µM. As for NDFEMITKY [SEC62361-368 (Δhelix) peptide], the Kd turned out to be 3.38 µM. In turn, GPHSSGNGNDFEMITKEELEQQTDY [SEC62355-376 WT peptide] showed a Kd of 0.19 µM. Compared with the last molecule, the Kd is about 18-fold lower.

With GPEEDTDTEEGDDFALLDQSALDQIESELY [FAM134B444-470 E456A E462A peptide], the Kd is 3.39 µM. On the same count and under the same terms, in the case of GPEEDTDTEEGDDFELLDQSELDQIESELY [FAM134B444-470 WT peptide] it was 0.14 µM.

In another test the target is T1, Atg8 (1-116) K26P (S. cerevisiae, UniProt P38182 1-116, K26P).
T1 sequence: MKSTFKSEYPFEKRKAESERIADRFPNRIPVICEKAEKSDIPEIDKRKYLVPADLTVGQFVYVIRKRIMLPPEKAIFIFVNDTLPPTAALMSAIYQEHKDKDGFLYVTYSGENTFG
The experiment in a line: ITC.
For the molecule EFPNDYDFAEDILDET [Atg40^237–252 M245A peptide], binding was put at a Kd of 21.7 µM. On the same count and under the same terms, in the case of TSTEFPNDADFMEDILDET [Atg40 peptide Y242A] it was 32.7 µM. TSTEAPNDYDFMEDILDET [Atg40 peptide F238A]: binding was characterised by a dissociation constant (Kd) of 4.31 µM.

Source of the values: paper PMC7335187 (2020).
